Results as given in patent US20110065592A1.

Biological target: RNA Pol II (UniProt P24928)
Experiment: cell-based or functional assay

cT of real-time PCR for GAPDH gDNA released from wells coated with the RNA Pol II antibody, compared with wells coated with the unspecific anti IgG antibody: < 5 cT
delta between the cT's obtained using the specific RNA Pol II antibody and the unspecific anti-mouse IgG antibody (all three washing procedures): > 0 cT
delta between the cT's obtained using the specific RNA Pol II antibody and the unspecific anti-mouse IgG antibody (washing with LS buffer and TE): 3.3 cT
Substance: anti RNA Pol II antibody (Santa Cruz sc-899)
